Experimental data taken from publication PMC5863359, “A novel acetyl xylan esterase enabling complete deacetylation of substituted xylans” (Biotechnology for Biofuels, 2018).

Assays:
[1] = substrate: CC(=O)Oc1ccc([N+](=O)[O-])cc1; assay: spectrophotometric hydrolysis assay (A410), Michaelis-Menten fit; format: biochemical, Flavobacterium johnsoniae; settings: 50 mM HEPES pH 8.0, 30 °C
Source text: spectrophotometric hydrolysis assay (A410), Michaelis-Menten fit on FjoAcXE

[2] = substrate: CC(=O)Oc1ccc2c(C)cc(=O)oc2c1; assay: spectrophotometric hydrolysis assay (A354), Michaelis-Menten fit; format: biochemical, Flavobacterium johnsoniae; settings: 50 mM HEPES pH 8.0, 10% DMSO, 30 °C
Source text: spectrophotometric hydrolysis assay (A354), Michaelis-Menten fit on FjoAcXE

B1: FjoAcXE (Flavobacterium johnsoniae UW101) (protein)
chain: GCTSNKALIKTGDKKEDQNWTGTWATAQMLVEPKNMPPEPGLAQNTLRQIIKVSLGGKQIRLRFSNLFSDQPAVLKSVSVANVTEAPAVDIKTQKILSFKGSPQVTLGADEVVYSDAFDFELQPGQLLAITIHYGEISSNVSGHPGSRTTSYILQGDHINNESFAGAVKTDHWYSIMGVDISSVKNESNVVCLGNSIIDGRGSGTNKQNRWTDILASRLNANKNTAHIGVLNLGIGGNCVVRGGLGPTALNRFDRDVLSQSGTKWLIILEGINDIGGIRKAEDASVTAKEIIEGYKVMIDKAHAKGIKVFGGTILPFEKSFYDAPFKQDARDIVNEWIRTKGNFDAVIDFDKAMASDVGSKTILPDMHDNDFLHPNEKGYQRMGETVDLDLFQ
notes: predicted signal peptide (residues 1-21) removed; N-terminal His6-tag (p15TV-L); codon-optimized synthetic gene, expressed in E. coli BL21(DE3) codon plus
**Q.** With B1 as the protein, how does the Km [1] read?
**A.** The Km was 900 ± 100 µM.

**Q.** What about the kcat [1] of the same protein?
**A.** Its kcat is 121 ± 3 s⁻¹.

**Q.** And the kcat/Km [1]?
**A.** The kcat/Km was 128000 M⁻¹ s⁻¹.

**Q.** And the Km [2]?
**A.** The Km was 800 ± 100 µM.

**Q.** What about the kcat [2] of the same protein?
**A.** Its kcat is 95.1 ± 4.4 s⁻¹.

**Q.** And the kcat/Km [2]?
**A.** The kcat/Km was 115000 M⁻¹ s⁻¹.
